In this experiment the target is human hair (hair keratin) (human). The experiment can be described thus: quantitative hair binding assay, peroxidase coupled via the His tag, TMB.

Absorption data for one molecule are collected here from patent US20090099075A1.

B1: KBD-B (keratin-binding domain B of human desmoplakin), His-tagged, expressed from pQE30-KBD-B (SEQ ID No.: 166) (protein)
chain: MRGSHHHHHHGSACELEPHTGLLLLSVQKRSMSFQGIRQPVTVTELVDSGILRPSTVNELESGQISYDEVGERIKDFLQGSSCIAGIYNETTKQKLGIYEAMKIGLVRPGTALELLEAQAATGFIVDPVSNLRLPVEEAYKRGLVGIEFKEKLLSAERAVTGYNDPETGNIISLFQAMNKELIEKGHGIRLLEAQIATGGIIDPKESHRLPVDIAYKRGYFNEELSEILSDPSDDTKGFFDPNTEENLTYLQLKERCIKDEETGLCLLPLKEKKKQVQTSQKNTLRKRRVVIVDPETNKEMSVQEGVDLQPSLIS
As for B1, the absorption at 405 nm turned out to be 0.65 A405 nm.
